Source: the DeepSol protein solubility set

Experiment: soluble on expression in E. coli; label from the status in PepcDB or PDB records

Row | Sequence | soluble on expression in E. coli
1 | MSLAQMPLTPNPDQHNAIQRVLKSLHHYQAFLLDGLTGSGKTEVYLQIMHEVLKQGKQVLVLVPEIGLTPQTISRFKSRFHCDVALLHSGLNDSKRLQAWQQAKMGKASIILGTRSAIYTPLPRLGLIILDEEHDLSYKQQEGFRYHARDVALYRGYLEQCPVILGSATPSIDSYHLVEQNKLELLQLNQRAGVALLPKMHLIDLKVAKKNEGLSQILIDQIQHTLDRQEQVLIFLNRRGYAPVLVCESCGWQANCPNCDAHFTLHTQPYGYLHCHHCGTIHRLPETCPECHHHTLKTLGMGTAKVEEHLKTLFPEHDVIRVDRDSTSRVGSWQKIYDRIQHNKPMILLGTQMLAKGHHFPYVTLVAILDIDAGLLSVDVRAPERTAQLIVQVAGRAGRGEHKGHVYMQTLRPDHPMLTTLIEKDYRAVAKDMLEERKAARLPPYRYSVLIRCESRDRDYSQAFLQEIAQMLQHQAGDSIEIWGPIPAPMERKAGRYRAHMVILAQDRARLHFFLRPWWAEVIQLPRQHQLRLSIDVDPQEFNEGHHHHHH | soluble
2 | MSLARQNRFDRTSFQTQIIDLSHDGRGVARPHGEGDKVTFVTGALPGEVVIVEPVARNRHFDEARVVEVLQASPQRVIPRCSHFGVCSGCVLQHLAEDAQVVSKQRVLLESLERIGRVSPERVLPALAAESWGYRRKGRFSVRWVEKKGRTLVGFREHDPRFVADVSVCHTVVPQVGEKIALLATLLNSLDGRRDVPQIEFIAGDAVVALTVRHLQPLSEADRLALIEFGKEHGIAIFLQSGGVESVRLLWPDEVLLAFRLKPWDVEFVFRPLDFIQINGGLNEKMIAHALDLLGAGFGERVLDLFCGLGNFTLPLARTVDEVVGVEGDIGLVERARENARRNGLGNAEFFVADLTRDQRDAPWMRQGFDKLLLDPPRSGAIEVLKQLPLKMFERIVYVSCHPGSLARDADFLVNEQGFVLRAVGAMDMFPHTAHVESIAVFDRCEGHHHHHH | soluble
3 | MSLARSVVVSAEAVYSHEGEYVGDHVLVDEGLVKSISRGEPHVSVGKRVAVKGFLLPPLVDAHLHMRSLGASFRIVNLKGASSPEEVAKRLAAANSPIAVGRGWNEEEFRPGSRLDRRILDSYLGEKPALAVRICGHVAVANSAFIRESGVDKLFPNLVDRERGLLLEDAVSYAVSVAMKTYNNEELLRDAASALASVGVFGVSSMACSEEEVRALSLIGDALEVRVACYLRRGVEPPPKRAGARWSIVGVKLFADGSLGGRTAYLRRPYISGENEGWRGLKLLSSRDIAEEAVSNSHRGLATAVHAIGDAALDEVLEGFSNAISRGVEPGMLRVEHASLAWPNQIDRLASLRVWTVVQPLFRVSDWWLESRVGSDMLQAAYPFASMLRAGVKLALSTDAPVETYDPAETFKAAVGLCSSRLCRESESLTPRETLKLYTLNSALASGGPVAWLGRLRRGAPALFAVANVDVLNSGRKELEKLKFRGLNLAKEGHHHHHH | soluble
4 | MSLARTLVIGNKNYSSWSMRPWIALKATGVAFDEVVIPLYTGDADKRRILAFTPAGKVPVLVDGDVTIWDSLAIIEYAAERFPKAQLWPDDVAARAHARSVAAEMHSGFAALRNECGMNIHRPVGAKQLSDAARADIARVQEIWIDCRHRYGRFGPYLFGRFSGVDAMFAPVVHRFRTYAVELDPIAQGYVEVMMALPAFQEWTQAALAETWVIDKFETEGHHHHHH | soluble
5 | MSLARTRILIVDDEDSIRFGMRDFLESRGYGVVDADSCQRARELFQASPPDVAVIDYRLHDGSAIDLLRDFRQIDADVPMIVLTAYGSIDLAVQAVKEGAEQFLTKPIEMPALHVILKRLLATRRLQRQQQVVATRDRRERVNPLSGGSPAIRDLAEQASKVMHTDSPILILGETGTGKSLLAKWLHHHGMRADEAFVDLNCAGLSPDFLETELFGHEKGAFTGATASKQGMLEIADGGTVFLDEIGDVDPRVQPKLLKVLEEKRFRRLGAVREREVDIRLIAATHHDLASKVKEGTFRSDLYFRISSIPLTMPALRDRKEDIVPLARTLLARSLADPSRTPQLTDDAALALREYAWPGNIREGHHHHHH | not soluble
6 | MSLASLIGLAVCTGNAFSPALAAEAKQPNLVIIMADDLGYGDLATYGHQIVKTPNIDRLAQEGVKFTDYYAPAPLSSPSRAGLLTGRMPFRTGIRSWIPSGKDVALGRNELTIANLLKAQGYDTAMMGKLHLNAGGDRTDQPQAQDMGFDYSLANTAGFVTDATLDNAKERPRYGMVYPTGWLRNGQPTPRADKMSGEYVSSEVVNWLDNKKDSKPFFLYVAFTEVHSPLASPKKYLDMYSQYMSAYQKQHPDLFYGDWADKPWRGVGEYYANISYLDAQVGKVLDKIKAMGEEDNTIVIFTSDNGPVTREARKVYELNLAGETDGLRGRKDNLWEGGIRVPAIIKYGKHLPQGMVSDTPVYGLDWMPTLAKMMNFKLPTDRTFDGESLVPVLEQKALKREKPLIFGIDMPFQDDPTDEWAIRDGDWKMIIDRNNKPKYLYNLKSDRYETLNLIGKKPDIEKQMYGKFLKYKTDIDNEGHHHHHH | not soluble
7 | MSLASVIADVPGMKTIVQVLTFRDYQYDDGWHQANIEVPAISGLEESGLGQALNQKYLEENKKLYEDFMADVEEMKALGDGHMGVDSGYEIKTDNERLLAIGRYVVNTVGSSSTVFKYDTIDKVDQVLITLPSLFKDDSYVQVISDYIVNEMKAKMKADSNLIYWVVTDENKDEVNYFEPFTQIKPEQSFYINSDYKLVISFDKYEVGPGVMGMQEFVIPTEVIADRLVSDEYVREGHHHHHH | soluble
8 | MSLATAPPFERIETTGLQTLTPRELDELIESVAAVDNPTPLVDDESFLRRVTLDAIGRVPTEQEWKTFMEDPASNKRAKLIDRLLASEEYGANWANYWSDVFSYRTPSPELTFLSYDTPKHWLAEQLNNGVGWDQVSYQMLTGVGKVADNPAAFYVGYHQADVSRLAGESTRIFLGAQIQCAECHDHPFVDIPQERFHQMAAFFVRTKAELPWNDEGHHHHHH | soluble
9 | MSLATKDPTAVERANLLNMAKLSIKGLIESALSFGRTLDSDYPPLQQFFVVMEHCLKHGLKGRKSFLSYNKTIWGPLELVEKLYPEAEEIGASVRDLPGLKTPLGRARAWLRLALMQKKMADYLRCLIIQRELLSEFYEYHALMMEEEGAVIVGLLVGLNVIDANLCVKGEDLDSQVGVIDFSMYLKNEEGHHHHHH | soluble
10 | MSLATKFPKNFKLATATAAYQIEGAKDLNGRGFSTWDAIRLEPGRILDNSDPDLSCDGLLKYKEDVALLAEIGVTNYRFSISWSRILPDGTLSTINEEGIKFYRDLCLLLKENNIEPVVTLFHFDMPLAIYDNGTAWLNRENCEHFEKFADLCFQKFGDLVKTWITYNEINCQAWGSIVKVEGEFWLCPERPEIENHKQAPYFGAANMLLTHAKIYRNYDQNYKPTQHGILGITNGGRFCFPATDSQEDIEACNRARDWLFNFTIEPILSGSGDFPVLMRERMPFIPKFSEEEKEIIKGSTDFIGINYYLSFLVRAPKDGEKASSQSQHDGGYVFVEGKWDKICGETWIRYAPDGLLKILRYVKEKYANTPVFITENGCMDIVGQDQEDAFHDQHRIDYISGHLEAVAKALDEGCNVIGYTVWTLMDNFEWDDGFELKFGLCEVDFESPDKTRTMKKSAYFYKEFIKEFKDFHGI | not soluble
11 | MSLCAPNTGRFLLTGTPLPMLSYRHSFHAGNHADVLKHTVQSLIIESLKEKDKPFLYLDTHAGAGRYQLGSEHAERTGEYLEGIARIWQQDDLPAELEAYINVVKHFNRSGQLRYYPGSPLIARQLLREQDSLQLTELHPSDYPLLRSEFQKDSRARVEKADGFQQLKAKLPPVSRRGLILIDPPYEMKTDYQAVVSGIAEGYKRFATGTYALWYPVVLRQQIKRMIHDLEATGIRKILQIELAVLPDSDRRGMTASGMIVINPPWKLEQQMNNVLPWLHSKLVPAGTGHATVSWIVPEEGHHHHHH | soluble
12 | MSLCQLLGMNCNTPTDIMFSFEGFRRRGGITDHHADGFGIGFFEGKGVRLFHDDKPSVNSPVADLVRAYQIKSENVIAHIRKASQGQTSLANTHPFMREMWGGYWLFAHNGHLIDFFPEQGEFFHPVGTTDSERAFCHILNRLRTRFAARPDDDTLFDAIAGLTHEIRKFGLFNFMLSDGIALFAHASTLLHYIVRQAPFGKARLLDDDVMVDFAEVTTPSDRVAVIATLPLTRDESWSQLAVDELVMFREGNIVRHDRPENPVYMSAEEGLEIARAEGGSHHHHHH | soluble
